Test results reported in PMC6137059.

What follows are sequences tested against TcpK (Clostridium perfringens (plasmid pCW3)) (UniProt Q1PLI2) (assay: SPR). Details: SPR: 10 mM HEPES pH 7.4, 200 mM NaCl, 3 mM EDTA, 0.05% Tween 20, 20 C.

Going from “AAGGAACTTTACAAGGAACTTTA (double strand) [linker CAA]” to “AAGGAACTTTACAGGGAACTT (double strand) [R2L10]”, the binding signal rises from 25 % Rmax to 55 % Rmax.

“AAGGAACTTTACAGGGAACTTTA (double strand) [R2L9]” and “AAGGAACTTTACAGGGAACTTTAAAAATTTAAATTGATA (double strand) [R2L1]” are the same in binding signal: 100 % Rmax for the first, 100 % Rmax for the second.

“AAGGAACTTTACAGGGAACTTTA (double strand) [oriTmin23 (SPR)]” and “AAGGAACTTTACAGGGAACTTTAAAAATTT (double strand) [oriT#1 (SPR)]” are within 1.5-fold of each other in Kd: 360 nM for the first, 521 nM for the second.

Work on “ACAGGGAACTTTAAAAATTTAAATTGATAT (double strand) [oriT#2 (SPR)]” yielded a Kd of 2580 nM.
